In patent US20200325233A1 (ABCURO, published 2020):
Substitutions are numbered along the chain they refer to. One block for each binder: values may come before it.

How the values were obtained:
[1] = target: T1, cyno KLRG1 extracellular domain (ECD) (cynomolgus, biotinylated in the Octet assay (site not stated)); assay: hybridoma screening for binding to cyno KLRG1 ECD
T1 construct: Recombinant proteins were made as FC fusion or HIS tagged versions; also called cynomolgus-KLRG1-ECD; cyno KRG1 ECD
T1 chain: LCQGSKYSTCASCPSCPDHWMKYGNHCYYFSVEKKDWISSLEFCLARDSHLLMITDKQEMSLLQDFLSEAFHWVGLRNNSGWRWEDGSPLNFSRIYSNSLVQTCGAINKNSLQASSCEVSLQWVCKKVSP

SPLNFSRISSNSFVQ = target: T2, SPLNFSRISSNSFVQ; assay: peptide mapping: ABC_G1D03 on overlapping KLRG1 peptides, signal per peptide
T2 peptide: SPLNFSRISSNSFVQ

WEDGSPLNFSRISSN = target: T3, WEDGSPLNFSRISSN; assay: as above
T3 peptide: WEDGSPLNFSRISSN

[2] = target: T4, full length cynomolgus KLRG1 (cell-expressed) (cynomolgus, UniProt A0A2K5WAP9 1-186); assay: FACS on CHO cells expressing full length cynomolgus KLRG1, anti-mouse detection
T4 construct: whole, on cells; also called CHO-cynomolgus-KLRG1; cyno KLRG1
T4 sequence: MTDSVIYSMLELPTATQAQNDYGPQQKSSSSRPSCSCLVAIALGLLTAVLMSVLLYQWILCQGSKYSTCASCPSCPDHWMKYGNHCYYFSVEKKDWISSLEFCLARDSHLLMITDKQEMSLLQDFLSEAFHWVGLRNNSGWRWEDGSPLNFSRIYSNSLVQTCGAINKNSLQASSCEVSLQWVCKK
Experimental: (§1) Binding of anti-KLRG1 monoclonal antibodies to cells that expressed human and cynomolgus-KLRG1 was carried out by FACS. Chinese hamster ovary (CHO) cells were stably transfected to express full length human KLRG1 (CHO-human-KLRG1) and cynomolgus KLRG1 (CHO-cynomolgus-KLRG1). […] Table 7 summarizes the EC50 binding data measured for selected antibodies.

[3] = target: T5, full length human KLRG1 (cell-expressed) (human, UniProt Q96E93 1-195); assay: FACS on CHO cells expressing full length human KLRG1, anti-mouse detection
T5 construct: whole, on cells; also called CHO-human-KLRG1
T5 sequence (looked up): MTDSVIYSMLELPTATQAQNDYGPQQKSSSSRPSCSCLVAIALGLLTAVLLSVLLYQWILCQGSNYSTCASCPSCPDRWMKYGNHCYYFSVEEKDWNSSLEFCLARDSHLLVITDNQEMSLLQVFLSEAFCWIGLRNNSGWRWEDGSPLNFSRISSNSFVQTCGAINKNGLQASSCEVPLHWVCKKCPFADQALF
Experimental: as §1

[4] = target: T1, cyno KLRG1 extracellular domain (ECD); assay: Octet BLI, biotinylated antigen on streptavidin sensor, antibody in solution, 1:1 fit
Experimental: (§2) Binging kinetics of humanized antibodies for human and cynomolgus KLRG1 were determined by Octet® Systems (ForteBio) measurement. The Octet® platform includes instruments, biosensors, reagents, and assay kits for analysis of biomolecular interactions in 96- and 384-well microplates for use in real-time, label-free analysis for determination of affinity, kinetics, and concentration. The experimental set-up includes immobilizing biotinylated recombinant antigen (Human-KLRG-ECD or cynomolgus-KLRG1-ECD) on a streptavidin Octet® sensor to produce antigen loaded sensors. […] Thereafter, the sensors can be exposed to a solution of 1× phosphate buffered saline (PBS) buffer devoid of antibody for approximately 600 seconds to observe dissociation kinetics (kdis). The resulting data can then be fitted to a 1:1 binding kinetics model using, for example, ForteBio analysis software to calculate the KD. Kinetic binding parameters derived by this method are summarized in Table 8 for three humanized antibodies.

[5] = target: T6, human KLRG1 extracellular domain (ECD) (human, UniProt Q96E93 60-186, biotinylated in the Octet assay (site not stated)); assay: as above
T6 construct: Recombinant proteins were made as FC fusion or HIS tagged versions; also called Human-KLRG-ECD; human KLRG1 ECD
T6 sequence: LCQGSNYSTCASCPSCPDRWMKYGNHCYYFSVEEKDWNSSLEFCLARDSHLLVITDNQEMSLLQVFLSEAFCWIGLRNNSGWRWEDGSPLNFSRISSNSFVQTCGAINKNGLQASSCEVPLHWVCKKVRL
Experimental: as §2

binding result [1]: binds | binding result (SPLNFSRISSNSFVQ): binds | binding result (WEDGSPLNFSRISSN): binds | EC50 [2]: 8.63 nM | EC50 [3]: 6.3 nM
B1: ABC_G1D03 (antibody, V domains shown)
VH: EVQLQQSGPELVKPGASVKMSCKTSGYTFTDHNMHWLKQSHGKGLEWFGFINPNTGVTRYNQKFNGKATLTINKSSSTAYLDLRSLTSEDSAVYYCTRDYYGSAWFAYWGQGTLVTVSA
VL: DIVMSQSPASQTVSVGEKVTMSCKSSQTLLYSSDQKNYLAWYQQKPGQSPKLLIYWASTRESGVPDRFTGSGSGTDFTLTISSVKAEDLAVYYCQQYYNYPTFGGGTKLEIK
notes: Mouse hybridoma monoclonal antibody

EC50 [2]: 3.44 nM | EC50 [3]: 4.87 nM
B2: ABC_G1D01 (antibody, V domains shown)
VH: EVQLQQSGPELVKPGASVKMSCKASGYTFTDYNIHWVKQSHGKSLEWIGFFNPKNGVTINNQNFKGKAALTVNKSSSTAYMELRRLTSEDSAVYYCARDYYGTAWFAYWGQGTLVTVSA
VL: B1 VL with A9S, Q11L, T12A, K24R, T28S, D34N, Y97F, N99S
notes: as for B1

binding result [1]: binds | EC50 [2]: 5.93 nM | EC50 [3]: 5.15 nM
B3: ABC_G1D05 (antibody, V domains shown)
VH: QVQLKQSGPGLVQPSQSLSITCTVSGFSLTTHGVHWVRQSPGKGLEWLGVIWSGGSTDYNAAFISRLSIRKDNSKSQVFFKMNSLQTNDTAIYYCARLRLPAMDYWGQGTSVTVSS
VL: QIVLTQSPTIMSASLGERVTMTCTASSSVSSTYLHWYQQKPGSSPKLWIYSTSNLASGVPARFSGSGSGTSYSLTISSMEAEDAATYYCHQYHRSPLSFGAGTKLELK
notes: as for B1

binding result [1]: binds | EC50 [2]: 3.4 nM | EC50 [3]: 72.5 nM
B4: ABC_G1D06 (antibody, V domains shown)
VH: QVQLQQSGAELVRPGASVTLSCKASGYKFSDYEIHWVKQTPVYGLEWIGALEPATGGTAYNPNFKGKAILTADKSSTTAYMELRSLTSEDSAVYYCSMHLAVYWGQGTLVTVSA
VL: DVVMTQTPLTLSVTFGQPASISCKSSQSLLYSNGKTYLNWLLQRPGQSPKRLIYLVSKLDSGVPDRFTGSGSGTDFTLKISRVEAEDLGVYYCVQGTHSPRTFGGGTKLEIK
notes: as for B1

binding result [1]: binds | EC50 [2]: 10.1 nM | EC50 [3]: 9.11 nM
B5: ABC_G1D02 (antibody, V domains shown)
VH: QVQLQQSGAELVRPGTSVKVSCKASGYAFTNYFIEWIKQRPGQGLEWIGVINPGSGGTNYNEKFKGKATLTADKSSSTAYMQLSSLTSEDSAVYFCTRPGHFDYWGQGTTLTVSS
VL: EIVLTQSPTTMAASPGEKITITCSASSSISSNYLHWYQQKPGFSPKLLIYKTSNLASGVPPRFSGSGSGTSYSLTIGTMEAEDVATYYCQQGNSIPRTFGGGTKLEIK
notes: as for B1

binding result [1]: binds | EC50 [2]: 7.2 nM | EC50 [3]: 213 nM
B6: ABC_G1D04 (antibody, V domains shown)
VH: EVQLQQSGPELVKPGSSLMMSCKSSGYTFTDYNIHWVKQSHGKRLEWIGFIDPKNGGTLYSEKFKDKATLTINKSSSTAYMELRSLTSEDSAVFYCAPDYYGSAWFAYWGQGTLVTVSA
VL: DIVMSQSPSSLTVSVGENVTMSCKSSQNLLYTSNQKNYLAWYQQKPGHSPKLLISWASTRESGVPDRFTGSGSGTDFTLTITSVKAEDLAVFYCQQYYHYPTFGGGTKLEIK
notes: as for B1

Kd [4]: 0.388 nM | koff [4]: 0.000142 s⁻¹ | kon [4]: 367000 M⁻¹ s⁻¹ | Kd [5]: 0.0567 nM | koff [5]: 3.07e-05 s⁻¹ | kon [5]: 541000 M⁻¹ s⁻¹
B7: ABC_HG1D02 (antibody, V domains shown)
VH: QVQLVQSGAEVKKPGSSVKVSCKASGYAFTNYFIEWVRQRPGQGLEWMGVINPGSGGTNYNEKFKGRVTITADKSSSTAYMELSSLRSEDTAVYYCARPGHFDYWGQGTTVTVSS
VL: EIVLTQSPTTLSLSPGERATLSCSASSSISSNYLHWYQQKPGFAPRLLIYKTSNLASGIPPRFSGSGSGTDFTLTISRLEPEDFAVYYCQQGNSIPRTFGQGTKVEIKR
notes: The printed VK entry ends in 'RTV' (start of the constant kappa domain)

Kd [4]: 0.0609 nM | koff [4]: 3.82e-05 s⁻¹ | kon [4]: 627000 M⁻¹ s⁻¹ | Kd [5]: 0.156 nM | koff [5]: 5.91e-05 s⁻¹ | kon [5]: 380000 M⁻¹ s⁻¹
B8: ABC_HG1D03 (antibody, V domains shown)
VH: EVQLVQSGAEVKKPGASVKVSCKASGYTFTDHNMHWVKQATGQGLEWFGFINPNTGVTRYNQKFQGRVTLTINKAISTAYLELSSLRSEDTAVYYCARDYYGSAWFAYWGQGTLVTVSS
VL: not shown
notes: The printed VK entry ends at '...FGGGTKV' (appears cut short of the usual end of the domain)
